Measurements taken from the nanobody polyreactivity screen of Harvey et al. (2022).

Assay: yeast display, Sf9 membrane polyspecificity reagent, FACS + sequencing; frameworks hold sequencing errors
Summary of the method: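 Sorting gates, low and high (top ~1%), were placed on anti-HA fluorescence to track expression and on streptavidin fluorescence to track reagent binding. A clone's polyreactivity label is taken from the gate it came out of. The reagent was 10% biotinylated, detergent-solubilized Sf9 membrane, applied for 1 hour at 4 °C to galactose-induced yeast display cells.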

| Sequence | polyreactivity (PSR sort gate) |
| --- | --- |
| QVHLVESGGGLVQAGGSLRLSCAASGSIFLVYAMGWYRPAPGKERELVAVISNGGRTNYADSVKGRFTISRDNAKNTVYLQMNSLKPEDTAVYYCAVRGPTDYWADPYSAGDHWGQGTQVTVSS | high polyreactivity |
| QVQLVESGGGLVQAGGSLRLSCAASGSTFPRYAMGWYRQAPGKARELVAAINSSGSSTYYADSVKGRFTISRDNAKNTVYLQMNSLKPEDTAVYYCAAKARYRDYYYWGQGTQVTVSS | high polyreactivity |
| QVQLVESGGGLVQAGGSLRLSCAASGRIFPGYAMGWYRQAPGKERELVAAISGGGGRTYYADSVKGRFTISRDNAKNTVYLQMNSLKPEDTAVYYCAADTTPPRGFDYWGQGTQVTVSS | high polyreactivity |
| QVQLVESGGGLVQAGGSLRLSCAASGSTFWYYAMGWFRQAPGKERELVAAITRGASTNYADSVKGRFTISRDNAKNTVYLQMNSLKPEDTAVYYCAAGPARWKGYYWGQGTQVTVSS | high polyreactivity |
| QVQLVESGGGLVQAGGSLRLSCAASGRIFLSYAMGWYRQAPGKERELVAGITWNGGSTYYADSVKGRFTISRDNAKNTVYLQMNSLKPEDTAVYYCAATRFSYVFPYRYDYWGQGTQVTVSS | low polyreactivity |
| QVQLVESGGGLVQAGGSLRLSCAASGRTFYYNAMGWYRQAPGKERELVAVITRGSTYYADSVKGRFSISRDNAKNTVYLQMKSLKPEDTAVYYCCKYRHYHRGYDYWGQGTQVTVSS | high polyreactivity |
| QVQLVETGAGLVQAGGSLRLSCAASGRTYVYNAMGWYRQAPGKERELVAAIDGGGDRTYYADSVKGRFTISRDNAKNTVYLQMNSRKPEDTAVYYCARDQGDTYYYSYPEGDYWGQGTQVTVSS | low polyreactivity |
| QVQLVESGGGLVQAGGSLRLSCAASGSIYRTNAMGWYRQAPGKERELVAAITGSGGSTYYADSVKGRFTISRDNAKNTVYLQMNSLKPEDTAVYYCAAEFGSFVSPYNYYYWGQGTQVTVSS | low polyreactivity |
| HVQLVESGGGLVQAGGSLRLRCAASGITFAEYTMGWYRQAPGKERELVAAISRRGGSTYYADSVKGRLTISRDNAKNTVYLQMNSLKPEDTAVYYCNALFRYSRDYWGQGTQVTVSS | high polyreactivity |
| QVQLVESGGGLVQAGGSLRLSCAASGSIFQYNAMGWSRQAPGKERELVAAISSRGGITYYADSVKGRFTISRDNAKNTVYLQMNSLKPEDTAVYYCAAEAYYSEVRWYEYWGQGTQVTVSS | high polyreactivity |
| QVQLVESGGGLVQAGGSLRLRCAASGSIFYFYAMGWYRQAPGQEREFVAAITRSGGRTYYADSVKGRFTISRDNAKNTVYLQMNSLKPEDTAVYYCDAVPYDKRKGDYWGQGTQVTVSS | high polyreactivity |
| QVQLVESGGGLVQAGGSLRLSCAASGRIFYYYAMGWYRQAPGKERELVATITTTGNTYYADSVKGRFTISRDNAKNTVYLQMNSLKPEDTAVYYCNAGWDLVYGYYPRRKNFDYWGQRTQVTVSS | high polyreactivity |
| QVQLVESGGGLVQAGGSLRLSCAASGSIFYYAMGWYRQAPGKERELVAAISSGGRTNYADSVKGRFTISRDNAKNTVYLQMNSLKPEDTAVYYCAAVSPYGSQYGYWGQGTQVTVSS | high polyreactivity |
| QFQLVESGGGLVQAGGSLRLSCAASGRIFPGYAMGWYRQAPGKERELVAAISERGGSTYYADSVKGRFTISRDHAKNTVYLQMNSLKPEDTAVYYCAAIWRGGYNYWGQGTQVTVSS | low polyreactivity |
| QVQLVESGGGLVQAGGSLRLSCAASGLTFYRYAMGWYRQAPWKERDFVAAINRNGGSTYYADSVKGRFTISRDNAKNTVYLEMNSLKPEDTAVYYCNARVSGTRSGRVLRDYWGQGTQVTVSS | high polyreactivity |
| QVQLVESGGGLVQAGGSLRLSCAASGRTFDRNAMGWYRQAPGKEREFVAAISYRGASTYADSVKGRFTISRDNAKNTVYLQMNSLKPEDTAVYYCAARVTYYGTSGYYYWGQGTQVTVSS | high polyreactivity |
| QVQIVESGGGLVQAGGSLRLSGAASGLIFKYYDMGWSRQAPGKERELVASISRSGGRTYYADSVMGRFTISRDNAMNTVYLQMNSLKPEDTAVYYCNADTWLYWDGDDYWGQGTQVTVSS | high polyreactivity |
| QVQLVESGGGLVQAGGSLRLSCAASGSIFRGYAMGWYRQAPGKERELVAAITKRGGNTYYADSVKGRFTISRDNAKNTVYLQMNSLKPDDTAVYYCAKAGWGKWVYAQMDYWGQGTQVTVSS | high polyreactivity |
| QVQLVESGGGLVQAGGSLRLSCAASGSTFYSNVMGWYRQAPGKERELVAAISRSGGSTYYADSVKGRFTISRDNAKNTVYLQMNSLKPEDTAVYYCAAEREVGDAYDYWGQGTQVTVSS | high polyreactivity |
| QVQLVESGGGLVQAGGSLRLSCAASGNIFNTNARGWYRQAPGKDTELVAAISWNTGSTYADSVKGRFTISRDNAKKTVDLPMNSLKPEDTAVYYCAADRSHAYYRKNRVDYWGQGTQVTVSS | low polyreactivity |
| QVQLVESGGGLVQAGGSLRLSCAASGITFDYYAMGWYRQAPGKERELVAAITSVGNTYYADSVKGRFTISRDNAKNTVYLQMNSLKPEDTAVYYCNALSFYSLVSFDYWGQGTQVTVSS | low polyreactivity |

| Sequence | polyreactivity (PSR sort gate) |
| --- | --- |
| QVQLVESGGCLVQAGGSLRLSCAASGGTFSRNAMGWYRQAPGKERELVAAINSSGVSTSYAYSVKGRFTISRDNEKNTVYLQMNSLKPEDTAFYYCAAETSSAEVDYWGQGTQVTVSS | low polyreactivity |
| QVQLVESGGGLVQAGGSLRLTSAASGRIFYNYAIGWYRQAPGKERELVAAISSSGGSTYYADSVKGRFTISRDNAKNTVYVQMNSLKPEDTAVYYCAAYSYGLYYTYDYWGQGTQVTVSS | high polyreactivity |
| QVQLVESGGGLVQAGGSLRLSCAASGSTFVYAMAWSRQAPGKERELVAAIRLRSGSTYYADSVKGRFTISRDNAKNTVYLQMNSLKPEDTAVYYCAAAIQSSKVSVKFGYWGQGTQVTVSS | high polyreactivity |
| QVQLVESGVGLVQAGGSLRLSCAASGSIFQKYTMGWYRQAPGKERQLVAAITRSGGSTYYADSVKGRFTISRDNAKNTVYLQMNSLKAEDSAVYYCNKRYIPWAYDYWGQGTQVTVSS | high polyreactivity |
| QVQLVESGGGLVQAGGSLRLSCAASGRILFGYAMGWYRQAPGKERELVADITSTGSTNYADSVKGRFTISRDNAKNTVYLQMNSLKPEDTAVYYCNARRESYYQRYRVDYWGQGTQVTVSS | low polyreactivity |
| QVQLVESGGGIVQAGGCLRLSFAASGFSFAKNAMGSYRQAPGKERELVAAIRSGGSTKYADSVNGRFTISRDNAKNTVYLQMNSLKPEDTAVYYCNARSTWSRTRPAYDYWGQGTQVTVSS | high polyreactivity |
| QVQLVESGGGLVQAGGSLRLSCAAAGLISIRILMGWYRQAPGKERELVAGITSTGSTSYADSVKGRFTSSRDNAKNTVYLQMNSLKPEDTAVYYCNTKGSRPGIWPTTSGYWGHGTQVTVSS | high polyreactivity |
| QVQLVESGGGLVQAGGSLRLSCAASGSTFWPYAMGWYRPAPGKERELVAAITNSGGSTYYADSVKGRFTISRDNAKYTVYLQMNSLKPEDTAVYYCAVRGVIYSYTPVNTYDYWGQGTQVTVSS | low polyreactivity |
| QVQLVESGGGLVQAGGSLRLSCAASGFTFRYYAMGWYRQAPGKEREFVAAITYNGVSTYYADSVKGRFTISRDNAKNTVYLQMNSLKPEDTAVYYCAAGWYYYARPRVYNAREYYYWGQGTQVTVSS | high polyreactivity |
| QVQLVESGGGLVQAGGSLRLRCAASGRTFQYNAMGWYRQAPGKESELVAANTSNGGSTYYADSVKGRFTISRDNAKNTVYLQMNSLNPEDTAVYYCAKAYRYVDRGYRLLRYGFWGQGTQVTVSS | high polyreactivity |
| QVQLVESGGGLVQAGGSLRLSCAASGSTFITNAMGWYRQAPGKERELVAAISSSGGSTYYADSVKGRFTISRDNAKNTVYLQMNSLKPEDTAVYYCNAVPYVPRFDYWGQGTQVTVSS | low polyreactivity |
| QVQLVESGGGLVQAGGSLRVSCAASGFTFDYYAMGWYRQAPGKEWEFVAAISSRGDDTYYADSVKGRFTISRDNAKNTVYLQMNSLKPEDTAVYYCAKVWRYGRYEYGYWGHGTQVTVSS | high polyreactivity |
| QVQLVESGGGLVQAGGSLRLSCAASGSTFPRNAMGWYRQAPGKERELVAAISRSGGSTYYADSVKGRFTISRDNAKNTVYLQINSLKPEDTAVYYCAASYYGLPRYRYEYWGQGTQVTVSS | high polyreactivity |
| QVQLVESGGGLVQAGGRLRLSCSASGLTVYRKAMGWSRQAPGKEREMVAAITSSGGRTYYADSVKGRFTISRDNAKNTVYLLMNSLKAEDTALYYCAADFCLGYYYWGQGTQVTVSS | high polyreactivity |
| QVQLVESGGGLVQAGGSLRLSCAASGFTFSYYARGWYRQAPGKERELVAAISINGGRTYYADSVKGRFTISRDNAKNTVYLQMNSLKPEDTAVYYCNAVSYAYTVRMYYWGQVTQVTVSS | high polyreactivity |
| QVQLVESGGGLVQAGGSLRLSCPASGSSSVYNAMGWYRQAPGKERELVAAISWSGGRTSYADSVKGRFTISRDIAKNTVYLQMNSLKPEDTAVYFCAAHTVYSPPRVAGPGYDYWGQGTQVTVSS | low polyreactivity |
| QVQLVESGGGLVQAGGSLRLSCAASGRTFVYNAMGWYRQAPGKERQLVAGITNGGSTNYADSVKGRFTISRDNAKNTVYLQMNSLKPEDTAVYYCAADSRVYPYYFGHFGFWGQGTQVTVSS | low polyreactivity |
| QVQLVESGGGLVQAGGSLRLSCAASGIIFKYNVMGWYRQAPGKERELVAAITDSGTSTFYADSVKGRFTISRDNAKNTVYLQMNSLKPEDTAVYYCAADEFSVFTIETYGYDYWGQGTQVTVSS | low polyreactivity |
| QVQLVESGGGLVQAGGSLRLSCAASGRTFWYYAMGWYRQAPGKERELVAAITWSGSDTYYADSVKGRFTISRDNAKNTVYLLMNSLKPEDTAVYYCAAEYSYESSGYDYWGQGTQVTVSS | high polyreactivity |
| QVQLVESGGGLVQAGGSLRLSCAASGSTLQRYTMGLYRPAPGKERELDAAITQSGGSTFYADSVKGRFTISRDNAKNTVYLQMNSLKPEDTAVYYCAAKLTTGYYYGVPRDYWGQGTQVTVSS | high polyreactivity |
